Data taken from patent US20240261333A1, “NOVEL TARGETS FOR ENHANCING ANTI-TUMOR IMMUNITY” (THE BROAD INSTITUTE, INC., priority 2021, published 2024).

Columns and labels:
Test in all cases: co-IP, IgG control, lysate of cells with C-FLAG B3GNT2; mass spectrometry
FUBP3 (human) = FUBP3 (human) (UniProt Q96I24)
PUM1 (human) = PUM1 (human) (UniProt Q14671)
ARPC4 (human) = ARPC4 (human) (UniProt P59998)
KRT4 (human) = KRT4 (human) (UniProt P19013)
PARP1 (human) = PARP1 (human) (UniProt P09874)
RPL13 (human) = RPL13 (human) (UniProt P26373)
EIF5B (human) = EIF5B (human) (UniProt O60841)
LSM12 (human) = LSM12 (human) (UniProt Q3MHD2)
RPS28 (human) = RPS28 (human) (UniProt P62857)
NUFIP2 (human) = NUFIP2 (human) (UniProt Q7Z417)
HNRNPK (human) = HNRNPK (human) (UniProt P61978)
RBM39 (human) = RBM39 (human) (UniProt Q14498)
HUWE1 (human) = HUWE1 (human) (UniProt Q7Z6Z7)
SAMM50 (human) = SAMM50 (human) (UniProt Q9Y512)
DNAJC3 (human) = DNAJC3 (human) (UniProt Q13217)
ATXN2 (human) = ATXN2 (human) (UniProt Q99700)
RPL18 (human) = RPL18 (human) (UniProt Q07020)
KRT6B (human) = KRT6B (human) (UniProt P04259)
GGCT (human) = GGCT (human) (UniProt O75223)
MOV10 (human) = target: T1, MOV10 (human) (UniProt Q9HCE1)
T1 sequence (looked up): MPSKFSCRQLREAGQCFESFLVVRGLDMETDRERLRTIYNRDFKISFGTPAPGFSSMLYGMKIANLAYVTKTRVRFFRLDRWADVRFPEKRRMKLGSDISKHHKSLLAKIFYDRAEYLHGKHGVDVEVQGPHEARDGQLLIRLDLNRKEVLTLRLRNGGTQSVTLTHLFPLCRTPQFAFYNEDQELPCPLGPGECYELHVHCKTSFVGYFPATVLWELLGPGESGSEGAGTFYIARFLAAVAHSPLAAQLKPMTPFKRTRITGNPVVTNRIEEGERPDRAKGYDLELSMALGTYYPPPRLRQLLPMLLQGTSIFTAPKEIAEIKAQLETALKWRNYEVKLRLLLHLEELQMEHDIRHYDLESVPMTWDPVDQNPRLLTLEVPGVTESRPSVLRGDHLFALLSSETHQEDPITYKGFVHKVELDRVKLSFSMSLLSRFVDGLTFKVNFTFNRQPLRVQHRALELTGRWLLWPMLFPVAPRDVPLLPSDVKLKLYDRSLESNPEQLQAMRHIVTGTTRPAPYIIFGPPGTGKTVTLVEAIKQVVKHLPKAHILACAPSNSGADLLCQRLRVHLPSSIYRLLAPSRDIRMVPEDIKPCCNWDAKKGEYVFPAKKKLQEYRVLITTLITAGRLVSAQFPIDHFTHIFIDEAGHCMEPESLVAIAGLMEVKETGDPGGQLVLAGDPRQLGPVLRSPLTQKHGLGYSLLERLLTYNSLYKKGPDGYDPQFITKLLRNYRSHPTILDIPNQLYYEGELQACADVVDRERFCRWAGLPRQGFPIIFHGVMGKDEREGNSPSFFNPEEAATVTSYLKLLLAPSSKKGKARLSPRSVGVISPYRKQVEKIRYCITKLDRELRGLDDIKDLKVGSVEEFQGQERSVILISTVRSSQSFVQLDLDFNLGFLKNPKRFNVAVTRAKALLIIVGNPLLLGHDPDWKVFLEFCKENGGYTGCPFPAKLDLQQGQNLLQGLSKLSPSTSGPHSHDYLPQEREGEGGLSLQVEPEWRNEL

C1orf68 (human) = C1orf68 (human) (UniProt Q5T750)
G3BP1 (human) = G3BP1 (human) (UniProt Q13283)
RPL4 (human) = RPL4 (human) (UniProt P36578)
HSPA8 (human) = HSPA8 (human) (UniProt P11142)
HADHB (human) = HADHB (human) (UniProt P55084)

Sequence of HNRNPK (human) (P61978 other isoform, or with tags, fused parts or gaps limits assumed): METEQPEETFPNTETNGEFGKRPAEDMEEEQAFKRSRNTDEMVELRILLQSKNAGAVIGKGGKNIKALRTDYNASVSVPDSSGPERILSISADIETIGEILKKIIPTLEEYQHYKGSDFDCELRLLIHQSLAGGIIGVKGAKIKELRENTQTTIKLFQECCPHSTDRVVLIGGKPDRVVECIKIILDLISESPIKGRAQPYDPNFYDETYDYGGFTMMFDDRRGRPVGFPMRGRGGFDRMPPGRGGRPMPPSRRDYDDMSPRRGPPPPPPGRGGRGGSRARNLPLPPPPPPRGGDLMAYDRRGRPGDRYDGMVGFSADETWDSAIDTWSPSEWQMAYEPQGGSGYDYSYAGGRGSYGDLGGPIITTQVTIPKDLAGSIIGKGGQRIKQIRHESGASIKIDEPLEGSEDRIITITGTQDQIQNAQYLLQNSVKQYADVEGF
Sequence of HUWE1 (human) (Q7Z6Z7 whole entry): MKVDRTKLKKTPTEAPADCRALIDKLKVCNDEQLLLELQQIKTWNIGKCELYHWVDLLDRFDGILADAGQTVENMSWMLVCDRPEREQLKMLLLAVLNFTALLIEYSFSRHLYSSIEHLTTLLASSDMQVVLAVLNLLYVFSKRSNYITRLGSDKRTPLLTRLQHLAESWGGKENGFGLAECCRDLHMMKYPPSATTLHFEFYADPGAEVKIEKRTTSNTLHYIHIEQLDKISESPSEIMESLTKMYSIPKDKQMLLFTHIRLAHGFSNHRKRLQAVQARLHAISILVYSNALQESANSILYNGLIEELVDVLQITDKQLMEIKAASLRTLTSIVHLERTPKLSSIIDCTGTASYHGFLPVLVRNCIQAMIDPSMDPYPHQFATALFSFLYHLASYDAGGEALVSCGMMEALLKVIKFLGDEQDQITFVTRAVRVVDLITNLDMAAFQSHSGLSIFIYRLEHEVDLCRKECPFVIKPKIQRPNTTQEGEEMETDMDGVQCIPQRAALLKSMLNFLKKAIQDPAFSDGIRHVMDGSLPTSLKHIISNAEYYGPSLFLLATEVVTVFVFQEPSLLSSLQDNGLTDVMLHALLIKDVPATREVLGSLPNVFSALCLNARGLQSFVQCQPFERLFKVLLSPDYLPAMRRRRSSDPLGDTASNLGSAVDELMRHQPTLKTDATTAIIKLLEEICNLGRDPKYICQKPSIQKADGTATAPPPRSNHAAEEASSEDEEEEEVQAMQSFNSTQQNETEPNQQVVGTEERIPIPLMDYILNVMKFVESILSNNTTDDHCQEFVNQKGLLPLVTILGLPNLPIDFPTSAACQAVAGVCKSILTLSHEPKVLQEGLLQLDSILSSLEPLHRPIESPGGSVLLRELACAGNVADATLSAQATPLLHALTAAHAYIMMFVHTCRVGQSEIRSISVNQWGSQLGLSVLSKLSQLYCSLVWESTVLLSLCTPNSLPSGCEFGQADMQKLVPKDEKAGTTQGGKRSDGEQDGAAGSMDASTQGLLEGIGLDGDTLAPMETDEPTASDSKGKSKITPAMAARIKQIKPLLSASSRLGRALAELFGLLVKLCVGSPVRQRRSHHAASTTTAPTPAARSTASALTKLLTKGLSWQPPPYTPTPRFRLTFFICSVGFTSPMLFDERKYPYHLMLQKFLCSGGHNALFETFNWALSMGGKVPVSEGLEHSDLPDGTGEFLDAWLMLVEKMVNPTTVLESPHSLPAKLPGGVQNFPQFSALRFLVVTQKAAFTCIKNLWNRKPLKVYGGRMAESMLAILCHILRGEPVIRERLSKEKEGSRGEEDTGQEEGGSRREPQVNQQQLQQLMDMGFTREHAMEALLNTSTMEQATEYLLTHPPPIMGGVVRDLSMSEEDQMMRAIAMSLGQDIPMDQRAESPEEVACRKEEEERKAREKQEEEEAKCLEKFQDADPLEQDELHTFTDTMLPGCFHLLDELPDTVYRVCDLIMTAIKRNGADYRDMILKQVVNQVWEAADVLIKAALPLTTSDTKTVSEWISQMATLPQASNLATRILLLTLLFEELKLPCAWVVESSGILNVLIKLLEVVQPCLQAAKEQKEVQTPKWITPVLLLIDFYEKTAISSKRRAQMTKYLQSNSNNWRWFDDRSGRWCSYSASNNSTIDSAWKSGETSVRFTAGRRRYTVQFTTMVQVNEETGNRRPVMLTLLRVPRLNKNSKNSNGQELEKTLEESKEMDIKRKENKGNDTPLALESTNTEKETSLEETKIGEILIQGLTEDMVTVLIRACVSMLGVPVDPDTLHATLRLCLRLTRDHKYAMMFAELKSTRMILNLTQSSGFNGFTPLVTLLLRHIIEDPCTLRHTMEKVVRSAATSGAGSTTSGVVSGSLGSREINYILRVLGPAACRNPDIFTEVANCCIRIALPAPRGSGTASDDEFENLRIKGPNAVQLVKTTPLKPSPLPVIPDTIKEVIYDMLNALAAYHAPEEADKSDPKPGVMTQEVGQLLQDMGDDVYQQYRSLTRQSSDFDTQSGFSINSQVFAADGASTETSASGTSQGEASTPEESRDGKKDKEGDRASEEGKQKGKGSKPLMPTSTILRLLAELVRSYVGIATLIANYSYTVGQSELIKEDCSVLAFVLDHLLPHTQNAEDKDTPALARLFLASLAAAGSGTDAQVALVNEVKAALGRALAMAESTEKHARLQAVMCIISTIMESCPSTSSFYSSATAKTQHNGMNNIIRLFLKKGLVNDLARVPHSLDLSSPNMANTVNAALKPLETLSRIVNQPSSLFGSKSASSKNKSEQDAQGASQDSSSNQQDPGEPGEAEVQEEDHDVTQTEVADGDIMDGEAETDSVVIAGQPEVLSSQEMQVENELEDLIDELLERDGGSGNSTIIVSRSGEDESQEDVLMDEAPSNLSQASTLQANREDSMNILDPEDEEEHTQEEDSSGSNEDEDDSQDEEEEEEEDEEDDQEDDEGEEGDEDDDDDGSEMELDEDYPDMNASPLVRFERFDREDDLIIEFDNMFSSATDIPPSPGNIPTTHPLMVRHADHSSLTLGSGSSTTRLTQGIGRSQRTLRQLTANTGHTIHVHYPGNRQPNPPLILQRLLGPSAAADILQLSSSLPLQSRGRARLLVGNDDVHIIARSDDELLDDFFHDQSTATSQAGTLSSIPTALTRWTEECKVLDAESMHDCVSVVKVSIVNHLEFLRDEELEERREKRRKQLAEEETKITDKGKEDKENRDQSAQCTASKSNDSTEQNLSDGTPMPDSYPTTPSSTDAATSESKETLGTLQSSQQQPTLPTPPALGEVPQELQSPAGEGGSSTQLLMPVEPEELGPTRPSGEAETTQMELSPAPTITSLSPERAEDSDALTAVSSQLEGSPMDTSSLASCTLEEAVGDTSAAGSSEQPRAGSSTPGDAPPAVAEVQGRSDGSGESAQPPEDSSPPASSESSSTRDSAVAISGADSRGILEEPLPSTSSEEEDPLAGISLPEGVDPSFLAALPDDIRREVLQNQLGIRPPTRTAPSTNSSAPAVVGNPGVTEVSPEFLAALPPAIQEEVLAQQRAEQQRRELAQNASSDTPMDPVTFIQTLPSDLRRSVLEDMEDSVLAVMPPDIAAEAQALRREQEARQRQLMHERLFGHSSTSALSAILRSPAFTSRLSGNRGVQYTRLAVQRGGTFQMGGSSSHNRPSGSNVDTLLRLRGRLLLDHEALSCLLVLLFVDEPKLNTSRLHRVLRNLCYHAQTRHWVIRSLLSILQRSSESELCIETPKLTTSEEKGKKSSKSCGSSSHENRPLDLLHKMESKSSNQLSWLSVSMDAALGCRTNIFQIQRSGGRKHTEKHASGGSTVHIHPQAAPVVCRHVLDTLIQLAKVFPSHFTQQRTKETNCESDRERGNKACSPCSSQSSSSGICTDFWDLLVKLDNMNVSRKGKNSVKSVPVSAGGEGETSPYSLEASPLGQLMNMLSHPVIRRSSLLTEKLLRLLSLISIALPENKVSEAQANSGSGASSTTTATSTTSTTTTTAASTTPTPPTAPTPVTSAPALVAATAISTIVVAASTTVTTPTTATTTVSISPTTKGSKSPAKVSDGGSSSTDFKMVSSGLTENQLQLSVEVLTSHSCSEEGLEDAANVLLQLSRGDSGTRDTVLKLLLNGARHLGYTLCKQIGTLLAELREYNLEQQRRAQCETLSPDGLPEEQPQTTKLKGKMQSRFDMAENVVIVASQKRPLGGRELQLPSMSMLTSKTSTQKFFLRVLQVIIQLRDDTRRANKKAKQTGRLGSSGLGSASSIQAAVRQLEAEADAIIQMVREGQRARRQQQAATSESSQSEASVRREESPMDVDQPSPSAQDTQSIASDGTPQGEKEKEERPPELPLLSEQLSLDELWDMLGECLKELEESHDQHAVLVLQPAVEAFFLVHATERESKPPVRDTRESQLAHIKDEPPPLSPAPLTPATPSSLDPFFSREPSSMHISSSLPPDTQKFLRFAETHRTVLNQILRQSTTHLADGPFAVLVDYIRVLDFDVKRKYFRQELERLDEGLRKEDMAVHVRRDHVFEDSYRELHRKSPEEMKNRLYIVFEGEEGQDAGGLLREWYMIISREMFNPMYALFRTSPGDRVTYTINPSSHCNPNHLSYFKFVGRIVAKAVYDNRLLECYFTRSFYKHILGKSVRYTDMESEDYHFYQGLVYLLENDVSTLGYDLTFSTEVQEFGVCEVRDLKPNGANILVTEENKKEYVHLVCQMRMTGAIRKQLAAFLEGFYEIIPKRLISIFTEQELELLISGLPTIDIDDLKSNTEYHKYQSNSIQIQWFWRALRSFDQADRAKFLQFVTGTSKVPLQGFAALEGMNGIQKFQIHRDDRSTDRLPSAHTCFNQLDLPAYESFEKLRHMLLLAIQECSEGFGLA
Sequence of C1orf68 (human) (Q5T750 whole entry): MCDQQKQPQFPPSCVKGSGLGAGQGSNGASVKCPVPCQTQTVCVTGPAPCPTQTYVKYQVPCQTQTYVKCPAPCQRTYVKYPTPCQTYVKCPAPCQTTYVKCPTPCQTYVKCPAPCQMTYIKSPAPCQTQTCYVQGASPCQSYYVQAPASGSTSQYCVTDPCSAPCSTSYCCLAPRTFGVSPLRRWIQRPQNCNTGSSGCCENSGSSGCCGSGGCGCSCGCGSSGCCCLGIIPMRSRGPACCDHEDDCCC

IgG control (Millipore Sigma 12-371) (antibody)
co-IP mass spectrometry count (FUBP3 (human)): 7
co-IP mass spectrometry count (PUM1 (human)): 0
co-IP mass spectrometry count (ARPC4 (human)): 0
co-IP mass spectrometry count (KRT4 (human)): 0
co-IP mass spectrometry count (PARP1 (human)): 0
co-IP mass spectrometry count (RPL13 (human)): 8
co-IP mass spectrometry count (EIF5B (human)): 0
co-IP mass spectrometry count (LSM12 (human)): 0
co-IP mass spectrometry count (RPS28 (human)): 0
co-IP mass spectrometry count (NUFIP2 (human)): 4
co-IP mass spectrometry count (HNRNPK (human)): 10
co-IP mass spectrometry count (RBM39 (human)): 3
co-IP mass spectrometry count (HUWE1 (human)): 0
co-IP mass spectrometry count (SAMM50 (human)): 0
co-IP mass spectrometry count (DNAJC3 (human)): 0
co-IP mass spectrometry count (ATXN2 (human)): 3
co-IP mass spectrometry count (RPL18 (human)): 7
co-IP mass spectrometry count (KRT6B (human)): 295
co-IP mass spectrometry count (GGCT (human)): 0
co-IP mass spectrometry count (MOV10 (human)): 3
co-IP mass spectrometry count (C1orf68 (human)): 4
co-IP mass spectrometry count (G3BP1 (human)): 25
co-IP mass spectrometry count (RPL4 (human)): 6
co-IP mass spectrometry count (HSPA8 (human)): 15
co-IP mass spectrometry count (HADHB (human)): 0
